Measured values reported in article PMC10683472, “Deep Learning-Driven Library Design for the De Novo Discovery of Bioactive Thiopeptides” (ACS Central Science, 2023).
Where no end group is shown, it is not given here.

How the values were obtained:
IRAK4 = biological target: T1, IRAK4 (Homo sapiens, UniProt Q9NWZ3); experiment: mRNA display affinity selection against IRAK4, NGS abundance; assay type: binding; parameters: acids 1-460; NP_057207.2) was purchased from Carna Biosciences; purchased Carna Biosciences (Kobe, Japan); conditions: Top100 selection hits, NGS
T1 sequence (Q9NWZ3 1-460): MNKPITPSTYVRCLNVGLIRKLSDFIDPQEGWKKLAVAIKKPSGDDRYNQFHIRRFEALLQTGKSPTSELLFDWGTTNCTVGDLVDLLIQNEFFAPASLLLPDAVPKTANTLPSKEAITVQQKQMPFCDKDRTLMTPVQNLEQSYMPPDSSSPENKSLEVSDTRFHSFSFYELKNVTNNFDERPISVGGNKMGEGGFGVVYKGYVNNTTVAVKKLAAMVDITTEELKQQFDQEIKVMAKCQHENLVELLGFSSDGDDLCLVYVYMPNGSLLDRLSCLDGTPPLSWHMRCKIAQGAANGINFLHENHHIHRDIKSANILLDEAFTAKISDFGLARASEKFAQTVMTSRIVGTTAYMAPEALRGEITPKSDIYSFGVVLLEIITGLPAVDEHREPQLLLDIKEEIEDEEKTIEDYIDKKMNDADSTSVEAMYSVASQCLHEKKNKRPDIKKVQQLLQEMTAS

TLR10 = biological target: T2, TLR10 (Homo sapiens, UniProt Q9BXR5); experiment: mRNA display affinity selection against TLR10, NGS abundance; assay type: binding; parameters: Chimera protein (extracellular domain, amino acid 20-576;); Fc (chimera); purchased R&D system #6619-TR-050; conditions: Top100 selection hits, NGS
T2 sequence (Q9BXR5 20-576): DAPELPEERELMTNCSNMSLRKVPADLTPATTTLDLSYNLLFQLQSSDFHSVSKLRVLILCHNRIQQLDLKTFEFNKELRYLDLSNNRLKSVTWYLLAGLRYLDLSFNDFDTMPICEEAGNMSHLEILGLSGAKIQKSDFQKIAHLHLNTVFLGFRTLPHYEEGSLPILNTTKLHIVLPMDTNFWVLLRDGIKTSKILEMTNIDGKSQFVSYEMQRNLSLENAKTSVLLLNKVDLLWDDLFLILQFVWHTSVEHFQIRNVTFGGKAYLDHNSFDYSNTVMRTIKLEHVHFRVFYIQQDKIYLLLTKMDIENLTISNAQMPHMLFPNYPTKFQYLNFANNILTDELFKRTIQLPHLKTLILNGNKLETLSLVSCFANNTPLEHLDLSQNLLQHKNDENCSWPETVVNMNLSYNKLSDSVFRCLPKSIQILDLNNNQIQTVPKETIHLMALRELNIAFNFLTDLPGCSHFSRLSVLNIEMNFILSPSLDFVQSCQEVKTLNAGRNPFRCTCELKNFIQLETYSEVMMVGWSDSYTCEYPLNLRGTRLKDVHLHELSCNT

Library fraction (TLR10; TLR10 selection pulldown (-))	Raw reads (TLR10; TLR10 selection pulldown (-))	Library fraction (TLR10; TLR10 selection pulldown (+))	Raw reads (TLR10; TLR10 selection pulldown (+))	Sequence	other results
				STYWKSRIYT	Library fraction (IRAK4; IRAK4 selection pulldown (+)): 0.0002; Raw reads (IRAK4; IRAK4 selection pulldown (+)): 23
				STRWNNRIWR	Library fraction (IRAK4; IRAK4 selection pulldown (+)): 0.0001; Raw reads (IRAK4; IRAK4 selection pulldown (+)): 9
				SVRWKHRIYK	Library fraction (IRAK4; IRAK4 selection pulldown (+)): 0.0003; Raw reads (IRAK4; IRAK4 selection pulldown (+)): 29; Library fraction (IRAK4; IRAK4 selection pulldown (-)): 0.00012; Raw reads (IRAK4; IRAK4 selection pulldown (-)): 16
				RLCYKRRNWQ	Library fraction (IRAK4; IRAK4 selection pulldown (-)): 0.00013; Raw reads (IRAK4; IRAK4 selection pulldown (-)): 17
				SMERKAITWLWT	Library fraction (IRAK4; IRAK4 selection pulldown (-)): 0.00019; Raw reads (IRAK4; IRAK4 selection pulldown (-)): 25
				AQYWKRRLWR	Library fraction (IRAK4; IRAK4 selection pulldown (+)): 0.0001; Raw reads (IRAK4; IRAK4 selection pulldown (+)): 9
				SVLWKRRIAK	Library fraction (IRAK4; IRAK4 selection pulldown (+)): 0.010; Raw reads (IRAK4; IRAK4 selection pulldown (+)): 1112; Library fraction (IRAK4; IRAK4 selection pulldown (-)): 0.011; Raw reads (IRAK4; IRAK4 selection pulldown (-)): 1441
				RTRWKCKMYH	Library fraction (IRAK4; IRAK4 selection pulldown (+)): 0.0002; Raw reads (IRAK4; IRAK4 selection pulldown (+)): 20
				GPILYNRRLFV	Library fraction (IRAK4; IRAK4 selection pulldown (+)): 0.0002; Raw reads (IRAK4; IRAK4 selection pulldown (+)): 21; Library fraction (IRAK4; IRAK4 selection pulldown (-)): 0.00014; Raw reads (IRAK4; IRAK4 selection pulldown (-)): 19
				TQFWKRRNYA	Library fraction (IRAK4; IRAK4 selection pulldown (+)): 0.0002; Raw reads (IRAK4; IRAK4 selection pulldown (+)): 26; Library fraction (IRAK4; IRAK4 selection pulldown (-)): 7e-5; Raw reads (IRAK4; IRAK4 selection pulldown (-)): 10
				SLLWKRRMMK	Library fraction (IRAK4; IRAK4 selection pulldown (+)): 0.0001; Raw reads (IRAK4; IRAK4 selection pulldown (+)): 11
				TLCWRRRNYK	Library fraction (IRAK4; IRAK4 selection pulldown (+)): 0.024; Raw reads (IRAK4; IRAK4 selection pulldown (+)): 2567; Library fraction (IRAK4; IRAK4 selection pulldown (-)): 0.011; Raw reads (IRAK4; IRAK4 selection pulldown (-)): 1518
				TQRWRARNYK	Library fraction (IRAK4; IRAK4 selection pulldown (+)): 0.006; Raw reads (IRAK4; IRAK4 selection pulldown (+)): 624; Library fraction (IRAK4; IRAK4 selection pulldown (-)): 0.00431; Raw reads (IRAK4; IRAK4 selection pulldown (-)): 576
				SQLWNRRLYK	Library fraction (IRAK4; IRAK4 selection pulldown (+)): 0.0009; Raw reads (IRAK4; IRAK4 selection pulldown (+)): 93; Library fraction (IRAK4; IRAK4 selection pulldown (-)): 0.00059; Raw reads (IRAK4; IRAK4 selection pulldown (-)): 79
				SQLCHRRIYK	Library fraction (IRAK4; IRAK4 selection pulldown (+)): 0.0001; Raw reads (IRAK4; IRAK4 selection pulldown (+)): 12
				TQRWKQKNWS	Library fraction (IRAK4; IRAK4 selection pulldown (+)): 0.0001; Raw reads (IRAK4; IRAK4 selection pulldown (+)): 9
				STLWNKKIYK	Library fraction (IRAK4; IRAK4 selection pulldown (+)): 0.0005; Raw reads (IRAK4; IRAK4 selection pulldown (+)): 54; Library fraction (IRAK4; IRAK4 selection pulldown (-)): 0.00019; Raw reads (IRAK4; IRAK4 selection pulldown (-)): 26
				SMLFKRRMYK	Library fraction (IRAK4; IRAK4 selection pulldown (+)): 0.0003; Raw reads (IRAK4; IRAK4 selection pulldown (+)): 27; Library fraction (IRAK4; IRAK4 selection pulldown (-)): 0.00019; Raw reads (IRAK4; IRAK4 selection pulldown (-)): 26
0.00088	105			TFLGGNVRAWI	
0.00077	92	0.00122	119	SSPNRYGGNVNT	
		0.00071	69	SIYFEKAEKVAF	

Library fraction (TLR10; TLR10 selection pulldown (-))	Raw reads (TLR10; TLR10 selection pulldown (-))	Library fraction (TLR10; TLR10 selection pulldown (+))	Raw reads (TLR10; TLR10 selection pulldown (+))	Sequence	other results
0.00054	64	0.00071	69	SMCVWARQKIVG	
0.00117	139			AEIHAWGLRI	
		0.00075	73	LGNVYIRSS	
		0.00019	19	STLFFMFQGIRG	
		0.0007	68	FVLNGRYLVM	
0.00043	51			SRIIYMNQSIRG	
0.040	4812			SMLFRLANKIAF	
		0.00022	21	MNPYSGNIVV	
0.007	798			SKIIWSNQAIRG	
		0.00021	20	SLETNSVVWI	
		0.00114	111	SIMIYCNQKIRG	
		0.00022	21	IGNTYVASS	
		0.00041	40	RILFPLQNSIAF	
0.008	995	0.168	16419	SRTNRFGGHMAS	
		0.00049	48	ALELKHVVVV	
0.022	2623			CVFFPHLNKIAL	
0.00141	168	0.00074	72	RIETARLVIL	
0.00554	661			CITFQLTRKVAF (not fully specified)	
0.00284	339			IGRLFVKSS	
0.004	462	0.004	391	SIVFHLTNKMAF	
		0.00031	30	RMSLNTRYIAF	

Library fraction (TLR10; TLR10 selection pulldown (-))	Raw reads (TLR10; TLR10 selection pulldown (-))	Library fraction (TLR10; TLR10 selection pulldown (+))	Raw reads (TLR10; TLR10 selection pulldown (+))	Sequence	other results
0.00047	56			ANYHGNVPWSC	
		0.00018	18	SMLLPMQRVVMF	
0.00163	194			SLELSRVNVVIH	
0.00054	64			TIELTHAYLH	
		0.00034	33	STKNQYGGWSPA	
0.00054	64	0.00058	57	GLVINKRWYVHL	
0.001	117			SMHYRFLCKIAF	
		0.00044	43	SILFPHQQKLLF	
		0.00019	19	MMSRGMRWVL	
0.010	1149	0.035	3411	SVCVYQHQGIRG	
		0.00027	26	IGKTYVKSC	
0.00283	338			RILFARQNLAAF	
		0.00019	19	AFQRRDDFRWVI	
0.013	1556	0.008	804	AINFELTNKIAF	
		0.00024	23	GVRLNGVIFVSV	
0.00053	63			CIIFVRQNKCAF	
0.00144	172			SICFPLQHKCAY	
0.002	250			IGRVWVQSS	
		0.00035	34	SLETSHLVIY	
		0.00024	23	WCGATLYSSIS	
		0.00022	21	AIRFSNVLAL	

Library fraction (TLR10; TLR10 selection pulldown (-))	Raw reads (TLR10; TLR10 selection pulldown (-))	Library fraction (TLR10; TLR10 selection pulldown (+))	Raw reads (TLR10; TLR10 selection pulldown (+))	Sequence	other results
0.042	4957	0.077	7526	ASINRYGGNAAS	
		0.00074	72	TMFFRRQNAMAL	
0.0009	107			GVGNRYGGHAGT	
		0.00033	32	TLELQSVVLH	
		0.00026	25	GYAVGKLLIRV	
0.005	582	0.045	4431	SNSNRYGGLITS	
		0.00022	21	CLPFPLQMRIAY	
0.004	475	0.007	660	IGNVCVVSS	
		0.00063	61	SKQVYHKQTIVG	
0.002	232			GLLHGNVPTWI	
		0.00055	54	TIYFKLQKAVAL	
		0.00018	18	FRGVLIRSS	
0.013	1571			TMLFRLQSKLAI	
0.009	1056			TMMFPHQRKLAF	
0.00054	65			SVDFGQVVIH	
0.00222	265			SLELKHIVFH	
0.006	714			SVVVWHAQPIMG	
0.00278	332			ALKFELLRKVAF	
		0.0008	78	STLIYKLQCILG	
0.007	870	0.008	778	IGRVMIKSS	
0.00067	80			ATIDLQLRRLTL	

Sequence	Library fraction (TLR10; TLR10 selection pulldown (-))	Raw reads (TLR10; TLR10 selection pulldown (-))	Library fraction (TLR10; TLR10 selection pulldown (+))	Raw reads (TLR10; TLR10 selection pulldown (+))	other results
SKIIIRGQGIRG	0.00238	284			
